Test [1] addresses T1, xlCARα (Xenopus laevis, UniProt A0A1L8FCY0).
T1 construct: gene nr1i3.L; full-length; 35S-Met labelled by in vitro transcription/translation (CARLA, with human GST-SRC-1 RID 583-783 as read-out) or expressed in HepG2 cells; LBD residues 145-423
T1 sequence (A0A1L8FCY0 19-441): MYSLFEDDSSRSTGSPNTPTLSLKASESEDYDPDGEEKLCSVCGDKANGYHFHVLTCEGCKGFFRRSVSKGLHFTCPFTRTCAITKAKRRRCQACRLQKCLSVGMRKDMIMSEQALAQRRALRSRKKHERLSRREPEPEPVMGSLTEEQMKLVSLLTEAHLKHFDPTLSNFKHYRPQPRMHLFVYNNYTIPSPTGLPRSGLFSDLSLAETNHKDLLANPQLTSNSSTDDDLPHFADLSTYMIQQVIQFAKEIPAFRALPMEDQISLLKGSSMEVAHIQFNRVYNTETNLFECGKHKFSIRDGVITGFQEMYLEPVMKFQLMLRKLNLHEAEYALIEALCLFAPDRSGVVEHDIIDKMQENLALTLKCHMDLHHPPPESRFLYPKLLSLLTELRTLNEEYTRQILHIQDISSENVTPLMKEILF
Briefly: CARLA: ligand-dependent pull-down of […]-labelled receptor by GST-SRC-1 RID. The following applies: pH 8.0, 4 °C overnight; agonist; indirect coactivator-dependent binding assay.

Test [2] concerns the target GAL4-DBD/PGC-1α-RID fusion protein (human PGC-1α, receptor interaction domain, amino acids 88-213) (UniProt Q9UBK2). Briefly: mammalian two-hybrid assay. The following applies: COS7 cells; pM-PGC1a (black bars); no ligand; n = 9; empty pVP16-AD with pM-PGC1a est. 3.3 (red line); parent: est. 3.6; read off a plot.
Test [3] deals with GAL4-DBD/SRC1-RID fusion protein (human coactivator SRC-1, receptor interaction domain, amino acids 583–783) (UniProt Q15788). Description: mammalian two-hybrid assay. The following applies: COS7 cells; pM-SRC-1 (black bars); no ligand; n = 9; empty pVP16-AD with pM-SRC-1 est. 0.57 (red line); parent: est. 0.49; read off a plot.
Chain of GAL4-DBD/SRC1-RID fusion protein (human coactivator SRC-1, receptor interaction domain, amino acids 583–783) (Q15788 583-783): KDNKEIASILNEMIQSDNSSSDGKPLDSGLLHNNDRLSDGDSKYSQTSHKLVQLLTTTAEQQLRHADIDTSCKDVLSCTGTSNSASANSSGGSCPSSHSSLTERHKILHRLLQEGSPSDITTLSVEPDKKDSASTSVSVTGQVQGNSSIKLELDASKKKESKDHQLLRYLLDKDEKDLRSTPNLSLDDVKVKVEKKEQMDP
For test [4], the target named is GAL4-DBD/RXRα-LBD fusion protein (human retinoid X receptor α, amino acids 226–462) (UniProt P19793). Description: mammalian two-hybrid assay. The following applies: COS7 cells; GAL4-dependent pGL3G5 reporter; no ligand; n = 6; parent: est. 40; read off a plot.
Chain of GAL4-DBD/RXRα-LBD fusion protein (human retinoid X receptor α, amino acids 226–462) (P19793 226-462): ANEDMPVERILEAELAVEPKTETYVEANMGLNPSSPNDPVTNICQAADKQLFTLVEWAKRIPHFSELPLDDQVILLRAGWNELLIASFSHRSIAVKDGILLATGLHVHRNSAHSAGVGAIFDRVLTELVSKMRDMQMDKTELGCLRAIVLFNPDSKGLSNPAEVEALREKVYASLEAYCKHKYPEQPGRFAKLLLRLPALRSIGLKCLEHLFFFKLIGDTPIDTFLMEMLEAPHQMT
For test [5], the target named is GST-tagged SRC-1 RID protein (recombinant human SRC-1, amino acids 583–783) (UniProt Q15788). Briefly: CARLA. The following applies: n = 3, read off a plot; for response: absence of ligand (DMSO only), parent: est. 0.10; for other: fold induction (fold over DMSO only (=1)): 100 µM pregnanedione (log M = -4.0), parent: est. 74.
Chain of GST-tagged SRC-1 RID protein (recombinant human SRC-1, amino acids 583–783) (Q15788 583-783): as the sequence (Q15788 583-783) above

Chain of GAL4-DBD/PGC-1α-RID fusion protein (human PGC-1α, receptor interaction domain, amino acids 88-213) (Q9UBK2 88-213): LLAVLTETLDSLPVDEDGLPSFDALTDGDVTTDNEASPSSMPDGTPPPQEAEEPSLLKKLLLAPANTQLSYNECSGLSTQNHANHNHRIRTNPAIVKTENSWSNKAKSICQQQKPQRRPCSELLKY

For `CC(=O)[C@H]1CC[C@H]2[C@@H]3CC[C@@H]4CC(=O)CC[C@]4(C)[C@H]3CC[C@]12C` [5β-pregnane-3,20-dione], in test [1], the “fold induction of SRC-1 interaction” value was “suggests that xlCARα binds pregnanedione with higher affinity than hsCAR”.
Take “VP16-AD/xlCARα-LBD fusion protein, wild type (Xenopus laevis constitutive androstane receptor α, amino acids 145–423) His295Leu”: the response worked out at 2.8 rel pM/pVP16 in test [2] and 0.45 rel pM/pVP16 in test [3]. In test [4], the response (fold over empty vector pVP16-AD (=1)) came out at 47.
In the same order, the values of “VP16-AD/xlCARα-LBD fusion protein, wild type (Xenopus laevis constitutive androstane receptor α, amino acids 145–423) Met272Val” are 5.5 rel pM/pVP16, 0.71 rel pM/pVP16 and 55.
Taken in the same sequence, the figures for “VP16-AD/xlCARα-LBD fusion protein, wild type (Xenopus laevis constitutive androstane receptor α, amino acids 145–423) Met272Val; Met316Phe” were 5.5 rel pM/pVP16, 0.77 rel pM/pVP16 and 59.
Taken in the same sequence, the figures for “VP16-AD/xlCARα-LBD fusion protein, wild type (Xenopus laevis constitutive androstane receptor α, amino acids 145–423) Met316Phe” were 5 rel pM/pVP16, 0.8 rel pM/pVP16 and 56.
Take “VP16-AD/xlCARα-LBD fusion protein, wild type (Xenopus laevis constitutive androstane receptor α, amino acids 145–423) Thr305Val”: the response in test [2] worked out at 5.7 rel pM/pVP16; in test [3] it was 0.99 rel pM/pVP16. In addition, the response (fold over empty vector pVP16-AD (=1)) in test [4] worked out at 110.
With “VP16-AD/xlCARα-LBD fusion protein, wild type (Xenopus laevis constitutive androstane receptor α, amino acids 145–423) Tyr311Phe”, the results for the response in test [2] and in test [3] were 4.2 rel pM/pVP16 and 0.61 rel pM/pVP16, respectively. In addition, in test [4], the response (fold over empty vector pVP16-AD (=1)) worked out at 98.
Regarding “VP16-AD/xlCARα-LBD fusion protein, wild type (Xenopus laevis constitutive androstane receptor α, amino acids 145–423) Val315Ile”, the response came to 2.8 rel pM/pVP16 in test [2] and 0.38 rel pM/pVP16 in test [3]. Further, in test [4], the response (fold over empty vector pVP16-AD (=1)) was 41.
With “full-length Xenopus laevis CARα, wild type, 35S-labelled His295Leu”, in test [5], the response is 0.11 % of input.
Regarding “full-length Xenopus laevis CARα, wild type, 35S-labelled Leu237Ile”, in test [5], the other: fold induction (fold over DMSO only (=1)) came out at 28 and the response is 0.05 % of input.
In the same order, the values of “full-length Xenopus laevis CARα, wild type, 35S-labelled Met272Val” are 16 and 0.17 % of input.
On to “full-length Xenopus laevis CARα, wild type, 35S-labelled Phe279Leu”, for which, in test [5], the other: fold induction (fold over DMSO only (=1)) is 2 and the response was 0.05 % of input.
Take “full-length Xenopus laevis CARα, wild type, 35S-labelled Phe297Tyr”: the response in test [5] was 0.11 % of input.
On the same count and under the same terms, the value for “full-length Xenopus laevis CARα, wild type, 35S-labelled Ser238Asn” was 0.11 % of input.
Still for that read-out and setting: the value for “full-length Xenopus laevis CARα, wild type, 35S-labelled Tyr311Phe” was 0.06 % of input.
For “full-length Xenopus laevis CARα, wild type, 35S-labelled Val315Ile”, in test [5], the other: fold induction (fold over DMSO only (=1)) was found to be 10 and the response is 0.09 % of input.

Source of the values: article PMC4010427, “Structural and Functional Similarity of Amphibian Constitutive Androstane Receptor with Mammalian Pregnane X Receptor” (PLoS ONE, 2014).
